Results reported in paper PMC7026663.

Legend:
[1] = target: nucleosome core particle (NCP); assay: native gel or EMSA
[2] = target: nucleosome core particle (NCP); assay: ITC
[3] = target: nucleosome core particle (NCP); assay: AUC
[4] = target: GST-tagged AtFKBP53 NTD (Arabidopsis thaliana)
[5] = target: AtFKBP53 NTD (residues 1–112) (Arabidopsis thaliana) (UniProt Q93ZG9); assay: AUC
Sequence of AtFKBP53 NTD (residues 1–112) (Arabidopsis thaliana) (Q93ZG9 1-112): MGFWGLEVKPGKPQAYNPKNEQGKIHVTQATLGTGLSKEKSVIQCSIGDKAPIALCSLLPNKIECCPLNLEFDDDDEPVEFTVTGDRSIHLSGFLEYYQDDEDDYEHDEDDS

Sequence of AtFKBP53 NTD (residues 1–112) (Q93ZG9 1-112): as above
Sequence of GST-tagged AtFKBP53 NTD (domain or fragment) (Q93ZG9 whole entry, the tested form may be a part): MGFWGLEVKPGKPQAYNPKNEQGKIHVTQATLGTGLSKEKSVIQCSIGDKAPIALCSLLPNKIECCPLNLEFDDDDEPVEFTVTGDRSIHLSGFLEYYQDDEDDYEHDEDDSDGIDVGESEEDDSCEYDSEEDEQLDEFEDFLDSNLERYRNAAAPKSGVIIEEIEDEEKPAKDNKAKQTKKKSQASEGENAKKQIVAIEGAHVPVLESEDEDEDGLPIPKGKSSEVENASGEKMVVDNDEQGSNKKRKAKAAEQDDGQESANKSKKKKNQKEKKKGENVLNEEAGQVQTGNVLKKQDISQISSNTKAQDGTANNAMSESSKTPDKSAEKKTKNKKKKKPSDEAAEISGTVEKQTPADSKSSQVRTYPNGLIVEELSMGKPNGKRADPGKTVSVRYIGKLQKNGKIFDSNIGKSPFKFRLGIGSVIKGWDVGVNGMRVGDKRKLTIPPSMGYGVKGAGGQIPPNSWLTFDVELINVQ

AtFKBP53 NTD (residues 1–112) (from UniProt Q93ZG9 1-112) (domain or fragment)
stoichiometry N (NTD pentamers per NCP) [1]: 2 | Kd1 (first site, sequential binding model) [2]: 0.18 µM | Kd2 (second site, sequential binding model) [2]: 2.72 µM | stoichiometry N (binding sites on NCP) [2]: 2 | stoichiometry N (NTD pentamers per NCP) [3]: 2

GST-tagged AtFKBP53 NTD (domain or fragment)
stoichiometry N [4]: 2

H2A/H2B dimer (from UniProt P06897;P02281) (complex)
stoichiometry N (H2A/H2B dimer per NTD pentamer) [5]: 1

H3/H4 tetramer (from UniProt P84233;P62799) (complex)
stoichiometry N (H3/H4 tetramer per NTD pentamer) [5]: 1
